Experimental data: publication PMC4578157

Molecular target: Duffy antigen receptor for chemokines (DARC) (human) (UniProt Q16570)
Test: SPR

| Substance | Kd [nM] |
| --- | --- |
| HlgA (from UniProt P0A074 30-309) (natural protein) | 29.2 |
| HlgC (from UniProt Q07227 30-315) (natural protein) | 229 |
| LukE (from UniProt O54081 29-314) (natural protein) | 56.4 |
